Test results as given in article PMC9491548, “The primary familial brain calcification-associated protein MYORG is an α-galactosidase with restricted substrate specificity” (PLoS Biology, 2022).
Blank lines part the entries; values can stand above or below the molecule they belong to.

Experiments:
[1] = molecular target: T1, MYORG (myogenesis-regulating glycosidase) (Homo sapiens, UniProt Q6NSJ0); test: ITC; crystal structure ([…] Å soak); thermal shift (ΔTm […] °C); inhibition of 4MU-Gal hydrolysis; format: binding; parameters: residues 80–714 (MYORGGH31)
T1 sequence (Q6NSJ0 80-714): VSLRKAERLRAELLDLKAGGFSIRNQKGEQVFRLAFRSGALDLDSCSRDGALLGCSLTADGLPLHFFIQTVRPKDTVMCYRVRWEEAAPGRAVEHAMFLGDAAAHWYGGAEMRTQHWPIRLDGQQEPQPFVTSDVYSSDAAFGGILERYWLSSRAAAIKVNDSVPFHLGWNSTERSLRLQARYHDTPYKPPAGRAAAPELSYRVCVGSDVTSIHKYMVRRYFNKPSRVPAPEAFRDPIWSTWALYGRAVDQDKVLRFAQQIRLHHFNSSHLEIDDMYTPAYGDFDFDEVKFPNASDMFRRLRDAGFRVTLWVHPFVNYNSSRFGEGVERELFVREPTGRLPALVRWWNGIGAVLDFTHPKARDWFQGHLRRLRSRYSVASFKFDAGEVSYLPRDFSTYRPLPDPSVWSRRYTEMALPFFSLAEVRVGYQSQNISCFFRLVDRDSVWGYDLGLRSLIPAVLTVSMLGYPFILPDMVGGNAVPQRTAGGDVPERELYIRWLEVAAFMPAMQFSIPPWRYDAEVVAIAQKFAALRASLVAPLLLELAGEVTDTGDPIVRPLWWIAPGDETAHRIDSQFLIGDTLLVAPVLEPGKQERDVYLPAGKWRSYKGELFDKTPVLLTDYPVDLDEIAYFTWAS

[2] = molecular target: T1, MYORG (myogenesis-regulating glycosidase)
[3] = molecular target: myogenesis-regulating glycosidase (MYORG) residues 80-714, deglycosylated with EndoH (human); test: SEC-MALS; SEC-MALLS; Superdex S200 10/300 GL in 20 mM HEPES (pH 7.5), 200 mM NaCl; ambient temperature; 100 ul of 3 mg/ml MYORG injected; 0.5 ml/min
[4] = molecular target: myogenesis-regulating glycosidase (MYORG) residues 80-714, glycosylated (human); test: as above
[5] = substrate: OC[C@H]1O[C@H](O[C@H]2[C@H](O)[C@@H](O)C(O)O[C@@H]2CO)[C@H](O)[C@@H](O)[C@H]1O; test: Michaelis–Menten kinetics with purified enzyme (glucose oxidase/HRP paired-enzyme assay); KM; format: biochemical, Homo sapiens; conditions: active site, −[…] and +[…] subsites

Molecule: OC[C@H]1NC[C@H](O)[C@@H](O)[C@H]1O [DGJ, deoxygalactonojirimycin]
Kd [1]: 1330 ± 450 nM

Molecule: Cc1cc(=O)oc2cc(O[C@H]3O[C@H](CO)[C@H](O)[C@H](O)[C@H]3O)ccc12 [4MU-Gal]
fluorogenic hydrolysis by purified enzyme; kcat/KM [2]: 7.247 ± 0.0637 M⁻¹ s⁻¹

B1: MYORG (myogenesis-regulating glycosidase) (Homo sapiens) (protein)
chain: T1 sequence (Q6NSJ0 80-714)
notes: residues 80–714 (MYORGGH31)
Km [5]: 980 ± 7 µM

Further lines, results first:

stoichiometry N [3]: 2
Molecule: myogenesis-regulating glycosidase (MYORG) residues 80-714, deglycosylated with EndoH (domain or fragment)

stoichiometry N [4]: 2
Molecule: myogenesis-regulating glycosidase (MYORG) residues 80-714, glycosylated (domain or fragment)
